Primed or numbered codes have the meaning given here. No end group written: not given here. FITC′ = fluorescein isothiocyanate label

First the molecules themselves.
B5: MBP-fused PB1-ZZ of p62 (residues 1-181) wild type (domain or fragment)
chain: not shown

Experiment [1] concerns the target B5. Nature of the experiment: FP; pH 8.0.
Experiment [2] deals with Flag-ZZ (ZZ-domain of p62 with the flag-tag) (human). Nature of the experiment: FP; pH 6.0.
The next experiment concerns the target T1, FEEED (Homo sapiens, not fully specified).
T1 chain: H-FEEED
The experiment is described as follows: FP; pH 8.0.

Sequence of Flag-ZZ (ZZ-domain of p62 with the flag-tag) (human) (chain, as listed by the source): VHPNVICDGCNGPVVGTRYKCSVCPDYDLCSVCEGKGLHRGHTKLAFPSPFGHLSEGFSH

B1: FITC-labeled N-degron peptide with tyrosine at the primary position (peptide)
chain: YEEEDK
modifications: also: FITC-labeled (site not given here)
Molecule B1 returned a Kd in experiment [1] of 68 µM.

B2: FITC-labeled N-degron peptide with tryptophan at the primary position (peptide)
chain: WEEEDK
modifications: also: FITC-labeled (site not given here)
B2 gave a Kd in experiment [1] of 82 µM.

B3: R-BiP peptide (REEEDK–FITC) (peptide)
peptide: REEEDK-{FITC′}
On to B3, for which the Kd in experiment [2] was over 400 µM.

B4: FITC-labeled N-degron peptide with lysine at the primary position (peptide)
chain: KEEEDK
modifications: also: FITC-labeled, site not given here
The molecule B4 displayed a Kd in experiment [1] of 113 µM.
B5 gave a Kd with FEEED of 169 µM.

By Kd is commonly meant a measure of binding affinity in units of concentration. A lower Kd goes with tighter binding.
